# Earlier results, collected in article PMC8828474.
# pKd: −log10 of the molar value.
# Biological target: Spike RBD (SARS-CoV-2) (UniProt P0DTC2)
substance,measurement,value
bamlanivimab,pKd,9.10
